± gives the half width of the 95% confidence interval.
Key:
[1] = folding stability dG unfold from trypsin proteolysis; higher = more stable
Summary of the method: (§1)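 Designed mini-proteins (under 80 residues, no cysteine) in a PA-tagged cDNA display construct were digested with trypsin and chymotrypsin. Each protease was used at 11 concentrations (threefold dilutions) plus a no-protease condition, followed by sequencing. K50 was inferred by Bayesian fitting of sequencing counts, and unfolding free energy was derived against a sequence-predicted unfolded-state K50 and a shared folded-state K50, per protease or combined. Only designs with AlphaFold2 dimer inter-PAE above 15 were kept.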

[2] = folding stability dG unfold from chymotrypsin proteolysis; higher = more stable
Summary of the method: as §1

[3] = folding stability dG unfold (combined trypsin and chymotrypsin); higher = more stable
Summary of the method: as §1

Sequence | folding stability dG unfold [1] [kcal/mol] | folding stability dG unfold [2] [kcal/mol] | folding stability dG unfold [3] [kcal/mol]
SAGGSAGGSKIEITVKTKEELLEAIRKLAEEKGYEIVSIKIEKLPDGTYKVTIEIRKNDPLLKSAGGSAGGS [r12_647_TrROS_Hall] | 1.35 ± 0.083 | 2.79 ± 0.076 | 2.38 ± 0.12
SAGGSMSLEGVSTVSEEKFPEKPTTLVPLTYPDGTTVEANRTLDPVTGKWTLPVTTPDGTVVVVDESAGGSA [r2_490_JUSTAS] | 1.34 ± 0.048 | 0.487 ± 0.073 | 0.977 ± 0.089
SMTLTETKVLTTETLSGEEFAKRSGVPVEEIRKSGVKYNVTVTPVEVTYYDPETGKTYKRTSTTVTITPESA [r9_382_JUSTAS] | 0.354 ± 0.083 | 0.842 ± 0.11 | 0.686 ± 0.073
SAGGSAWIRINSPEMVEAFAKELKDEGWKLKDVDVQRDPNNGNVWFEIPIEHPNNGKKRELEIWFRSAGGSA [r15_123_TrROS] | 0.368 ± 0.077 | -0.0873 ± 0.2 | 0.141 ± 0.11
SAGGSAGGSAGKKKILLKFKSAEEALEAIKKGKTIKLKNGKTVKVKKVTLDKNGYLLIELSAGGSAGGSAGG [r11_48_TrROS_Hall] | 2.23 ± 0.034 | 2.547 ± 0.021 | 2.44 ± 0.06
SAMEINIVLVAPPESPEALELAKEVAELVAKEIEEEGIPVEVEVEKIEFFRLPDGSIVVLIPIKVKPPESAG [r14_48_TrMRF] | 1.89 ± 0.1 | 3.27 ± 0.074 | 2.63 ± 0.19
SAGGSAGGSNLPAGQEIWFPIEIRIEMEMPVRDNGEPIWRMRMTMEHTIMLSIKVKPASPEDASAGGSAGGS [r20_14_TrROS] | 3.75 ± 0.31 | 5.11 ± 0.38 | 4.88 ± 0.43
SAGGSAMTVTLIVGDKPITIPLTASLSDIKAALEEHPDVPVYIILPNGKRIEMKVSDLIKMMEKAGSAGGSA [r15_36_TrMRF] | 2.99 ± 0.058 | 3.35 ± 0.099 | 3.16 ± 0.1
SAGGSMLIKIKLPKNNPLRDKIVEKLKKSPYVKDVKVKRLKELPNYEIFLIEVDGDPKVADEIKKLASAGGS [r16_394_TrMRF] | 2.16 ± 0.09 | 3.08 ± 0.045 | 2.83 ± 0.15
SAGGSAGGSAGGGSPIPTTTLTTVTYGSSSSLLSSAKGPSSVPYSLPSSLGSSVSTTVVGSAGGSAGGSAGG [r7_141_JUSTAS] | -0.911 ± 0.3 | -0.13 ± 0.29 | -0.34 ± 0.38
SAGGSAGGMTLEIEVNGKKIKIEVIKDKETNRYFVRITVDGKEVLIEADSKEDALKAIKELLKKSAGGSAGG [r6_715_TrROS_Hall] | 2.93 ± 0.059 | 4.42 ± 0.076 | 4.12 ± 0.077
SAEVRTVTDANGTQRTVTKTPDGTETVTTRPVPAPPPPPTVTVEVEYDAENGTLTVRLPDGSKLEFTFEDSA [r9_56_TrROS_Hall] | -0.118 ± 0.23 | 0.982 ± 0.046 | 0.742 ± 0.26
SSYTVDVTFTDPSPPKPTHRTLSSIEDAIAEAKAELPPGSVATITVTYPDGSTETITIVGDGVVETKKTASA [r9_482_JUSTAS] | -0.116 ± 0.056 | 0.917 ± 0.039 | 0.561 ± 0.081
SAGGSAGGSSLTLRLRLRLRVRVLDEETGELSEFEVEVELELRFEPAPPPPPPPLVLRDGKLVSAGGSAGGS [r12_140_TrROS_Hall] | 3.43 ± 0.15 | 4.53 ± 0.18 | 4.34 ± 0.34
SAGGSAGGSAMSEEEKKKKKPKLEIKVKVEFTVDENGTVRAKVTFEDGTTLEVEIKLPPELLSAGGSAGGSA [r18_192_TrROS_Hall] | 1.92 ± 0.094 | 1.49 ± 0.059 | 1.7 ± 0.11
SAGGSAGGSAGMEPPEIKVEVSSDPTPSGMKVETIKDLGKGKTIIVLKPEDGSVSTSTLESAGGSAGGSAGG [r11_55_JUSTAS] | -0.0544 ± 0.19 | 0.286 ± 0.13 | 0.0414 ± 0.44
SAGGSAGGSAGLDNIKPEELKKLFPGYKVYLLKVEEVGGKLKVDVKILKYNPSTNTWTPESAGGSAGGSAGG [r11_20_TrMRF] | 1.13 ± 0.044 | 1.59 ± 0.14 | 1.48 ± 0.11
SAGGMPIILLEEKKLPNGEPVYRITLLERDPNDGSWRPIEEDELKTKEEAEERAKAIAEKRGVELLKSAGGS [r16_512_JUSTAS] | 1.57 ± 0.026 | 1.34 ± 0.036 | 1.43 ± 0.053
SAGGSAGGSAMKIELTVPPGEEAELEARAKALAEAEGVEVVSVSKSPEGTYTMTVLNTVPPESAGGSAGGSA [r18_351_JUSTAS] | 0.532 ± 0.058 | -0.164 ± 0.19 | 0.317 ± 0.098
SAMEKVYIKVKFEVEGDPNGKEKKTIELIVENPDPNIGKEKLLEIAKEAVEKFAKENGYKVKISEVEIGSAG [r14_190_TrMRF] | 2.76 ± 0.29 | 4.22 ± 0.18 | 4.29 ± 0.39
SAGGSAGGSGTSTKINILLPVKPGETVKLKVEVNLNSKKVLFYVDVKKNPVGNYLSATFTVTGSAGGSAGGS [r12_136_TrMRF] | 2.75 ± 0.3 | 4.42 ± 0.12 | 3.85 ± 0.23

Sequence | folding stability dG unfold [1] [kcal/mol] | folding stability dG unfold [2] [kcal/mol] | folding stability dG unfold [3] [kcal/mol]
SAGPPVEIPITIKIRYWKPDPDGPKPVEERTIPIPVRMPPDQLDDPAFNNFIKEALDELPPGIRMIEITSAG [r5_849_TrROS] | 0.526 ± 0.042 | 1.28 ± 0.064 | 1.07 ± 0.068
SAGGMVTVTDPNGVKHEYKLKVKITFEKPDGKPVTVEIEFDNVTVEDIVKIAKEIESKGYKLVSIEISSAGG [r13_227_TrMRF] | 3.73 ± 0.34 | 4.91 ± 0.15 | 4.74 ± 0.22
SAGMVKAKLKVIPVTVDGKPKLYVKVELEIPGGPKFELVFETGSPEKAKELLEKLGLKVKDEDIEIEESSAG [r5_233_TrMRF] | 2.83 ± 0.11 | 3.69 ± 0.14 | 3.34 ± 0.18
SAGGSAGGSAGGSMPTYRITVEVDGKKYTITVREGMSPEEIAKRLKELYPNLTVKIEPVSAGGSAGGSAGGS [r4_155_TrROS_Hall] | 3.75 ± 0.13 | 4.07 ± 0.15 | 4.04 ± 0.13
SAGGMVLEVEFTGPLSEVEAFIEELKAKPGVELLSVEIEVKPLPGPPVRYRVKLEVKIYDPENPVLLSAGGS [r8_374_JUSTAS] | 2.26 ± 0.22 | 3.07 ± 0.077 | 2.74 ± 0.37
SPPVRARIRVERLPDGSVRVELEVEFPDGVRVRIETLEAPPETGVVRVRARFFPPDGSSVEFEFTFPLLRSA [r9_1179_TrMRF] | 3.74 ± 0.086 | 4.96 ± 0.12 | 4.52 ± 0.11
SAGGKLTLELEFELEDGLRVRLRVEVDEDGELRVTLEVEPEPPPPPIRVVKNEDGSEYVYRNGKLYKLSAGG [r13_151_TrROS_Hall] | 3.55 ± 0.16 | 5.18 ± 0.45 | 4.16 ± 0.84
SAGGSAGGSAGPRIVAFNVPNGKTIPLFAPDGWMIRINIERDPKDGEHKMETEYVPADDISAGGSAGGSAGG [r17_287_TrROS] | -0.424 ± 0.37 | -0.276 ± 0.44 | -0.419 ± 0.29
SSAEEIVEKLKKELEEKLPEDYKITSVTLTKSPDGIVTAPMTIKSSDGVESTVTVTYDLKTGKITIEVNSSA [r9_219_JUSTAS] | 3.42 ± 0.25 | 4.84 ± 0.12 | 4.73 ± 0.22
SAGGMTLEDLAGQSIEEALDLIEENGWDEVTITYPGGSKIEIKYNKDGPIEVEWENPDGNKQTFTIPSAGGS [r8_51_TrROS] | 0.644 ± 0.074 | 0.907 ± 0.1 | 0.833 ± 0.083
SAGGSAGGSAGGDPKAKPKKYYLIDLNARLVGVEVDPETGELTVTYELEGATLTLRFEGSAGGSAGGSAGGS [r10_962_TrMRF] | 2.24 ± 0.1 | 2.78 ± 0.045 | 2.65 ± 0.14
SAGGSFHDLAKELAKKRGLKKVSINMHPEDNSMNINIQNPEKGRPVQGNIPMEDMTPETVLDQIENILESAG [r5_896_TrROS] | -1.04 ± 0.69 | 0.297 ± 0.28 | -0.0716 ± 0.24
SAGGSAGGSMLVLHLPNGKEIPIPPGEFSEDTGVEDIAARIPPEVRRLRIYNEDGTEVEVPIDSAGGSAGGS [r20_161_TrMRF] | 0.00521 ± 0.4 | 0.479 ± 0.39 | 0.32 ± 0.18
SMKTVVIKIRKKDGKVTLEEIREAIKALLPPGAKVKLTEEELEKLVEELEKKTGKEITADDLVIVVEVEPSA [r9_197_TrROS_Hall] | 2.29 ± 0.085 | 2.59 ± 0.081 | 2.51 ± 0.16
SAGKKKKVVITIKVEKSEEEVKELVKKLAEEAKKKGKEVVIKIEVDGKTYEFTLEDIKKLPPNAKVTLLSAG [r5_626_TrROS_Hall] | 1.56 ± 0.11 | 1.67 ± 0.096 | 1.58 ± 0.44
SAGGSEKIEVEVERREDGYLVLRVRLELFDENGELVEEIEIEVVLPREELEKMSLEELLKRLLEELSAGGSA [r2_421_TrROS_Hall] | 3.99 ± 0.17 | 5.25 ± 0.38 | 5.08 ± 0.67
LDPNKPENIALLEKVEEAAKAVIEELEKAGYKVEKLYVALGPNGIKIAPVTIPPEFIEELKKAGILVIPVLS [r1_134_TrMRF] | 1.49 ± 0.11 | 1.64 ± 0.14 | 1.56 ± 0.26
SAGGSAGGSADIKVEVEYDKSNGYMWVKIKLPGKDIPIWIPPNDSPEQMEEKAIDFAKYLLKSAGGSAGGSA [r18_266_TrROS] | 0.592 ± 0.12 | 0.765 ± 0.21 | 0.791 ± 0.27
SAGGSAGGSATIWIPVSQIEEFLKQMPPDRIKEVKITYDPEDGWIPVKIPGGREIMIWVPKSAGGSAGGSAG [r3_291_TrROS] | 1.15 ± 0.029 | 0.83 ± 0.054 | 1.06 ± 0.076
SAGGSAPPEWRTIMIPMKPDDVDNAIEELRNELPPGRNINIHLQDPEPGRYFMITIRGNKIEIHFMSAGGSA [r15_257_TrROS] | 2.1 ± 0.17 | 2.12 ± 0.21 | 2.29 ± 0.17
SAGGSAGGSAGGKIIVYNPETGKPEEVSPEDLEEIIKNTPGPLILKVGEGEIELNAKDISAGGSAGGSAGGS [r10_839_TrMRF] | 0.807 ± 0.051 | 0.862 ± 0.067 | 0.828 ± 0.12
